In patent publication US20230220589A1:
Positions count from the first letter of the chain named.

Experiments:
[1] = target: M44-modified T NTAA target peptides; experiment: encoding assay; P2 A;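 note: fraction of recording tags encoded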
[2] = target: M44-modified D NTAA target peptides; experiment: encoding assay; P2 A;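 note: fraction of recording tags encoded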
[3] = target: M44-modified S NTAA target peptides; experiment: encoding assay; P2 A
[4] = target: M44-modified P NTAA target peptides; experiment: encoding assay; P2 A;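 note: fraction of recording tags encoded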
[5] = target: M44-modified E NTAA target peptides; experiment: encoding assay; P2 A;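 note: fraction of recording tags encoded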
[6] = target: M17-modified S NTAA target peptides; experiment: encoding assay; P2 L;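 note: fraction of recording tags encoded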
[7] = target: M17-modified D NTAA target peptides; experiment: encoding assay; P2 L;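 note: fraction of recording tags encoded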
[8] = target: M17-modified T NTAA target peptides; experiment: encoding assay; P2 L;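 note: fraction of recording tags encoded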
[9] = target: M17-modified G NTAA target peptides; experiment: encoding assay; P2 L;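 note: fraction of recording tags encoded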
[10] = target: M17-modified I NTAA target peptides; experiment: encoding assay; P2 L;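 note: fraction of recording tags encoded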
[11] = target: M17-modified M NTAA target peptides; experiment: encoding assay; P2 L;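 note: fraction of recording tags encoded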
[12] = target: M17-modified L NTAA target peptides; experiment: encoding assay; P2 L;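 note: fraction of recording tags encoded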
[13] = target: M17-modified F NTAA target peptides; experiment: encoding assay; P2 L;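 note: fraction of recording tags encoded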
[14] = target: M17-modified V NTAA target peptides; experiment: encoding assay; P2 L;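 note: fraction of recording tags encoded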
[15] = target: M17-modified N NTAA target peptides; experiment: encoding assay; P2 E;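 note: fraction of recording tags encoded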
[16] = target: M17-modified S NTAA target peptides; experiment: encoding assay; P2 E;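 note: fraction of recording tags encoded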
[17] = target: M17-modified T NTAA target peptides; experiment: encoding assay; P2 E;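 note: fraction of recording tags encoded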
[18] = target: M17-modified W NTAA target peptides; experiment: encoding assay; P2 E;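 note: fraction of recording tags encoded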
[19] = target: M17-modified Q NTAA target peptides; experiment: encoding assay; P2 E;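 note: fraction of recording tags encoded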
[20] = target: M17-modified I NTAA target peptides; experiment: encoding assay; P2 E;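 note: fraction of recording tags encoded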
[21] = target: M17-modified P NTAA target peptides; experiment: encoding assay; P2 E;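 note: fraction of recording tags encoded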
[22] = target: M17-modified V NTAA target peptides; experiment: encoding assay; P2 E;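 note: fraction of recording tags encoded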
[23] = target: M17-modified N NTAA target peptides; experiment: encoding assay; P2 A;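 note: fraction of recording tags encoded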
[24] = target: M17-modified D NTAA target peptides; experiment: encoding assay; P2 A;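 note: fraction of recording tags encoded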
[25] = target: M17-modified A NTAA target peptides; experiment: encoding assay; P2 A;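 note: fraction of recording tags encoded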
[26] = target: M17-modified T NTAA target peptides; experiment: encoding assay; P2 A;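 note: fraction of recording tags encoded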
[27] = target: M17-modified W NTAA target peptides; experiment: encoding assay; P2 A;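 note: fraction of recording tags encoded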
[28] = target: M17-modified G NTAA target peptides; experiment: encoding assay; P2 A;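 note: fraction of recording tags encoded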
[29] = target: M17-modified Q NTAA target peptides; experiment: encoding assay; P2 A;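 note: fraction of recording tags encoded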
[30] = target: M17-modified I NTAA target peptides; experiment: encoding assay; P2 A;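 note: fraction of recording tags encoded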
[31] = target: M17-modified M NTAA target peptides; experiment: encoding assay; P2 A;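 note: fraction of recording tags encoded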
[32] = target: M17-modified L NTAA target peptides; experiment: encoding assay; P2 A;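 note: fraction of recording tags encoded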
[33] = target: M17-modified Y NTAA target peptides (M17-Y-P2-peptide); experiment: encoding assay; P2 A;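 note: fraction of recording tags encoded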
[34] = target: M17-modified F NTAA target peptides; experiment: encoding assay; P2 A;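 note: fraction of recording tags encoded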
[35] = target: M17-modified P NTAA target peptides; experiment: encoding assay; P2 A;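 note: fraction of recording tags encoded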
[36] = target: M17-modified V NTAA target peptides; experiment: encoding assay; P2 A;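 note: fraction of recording tags encoded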
[37] = target: M17-modified E NTAA target peptides; experiment: encoding assay; P2 A;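 note: fraction of recording tags encoded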
[38] = target: M17-modified H NTAA target peptides; experiment: encoding assay; P2 A;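 note: fraction of recording tags encoded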
[39] = target: M17-modified N NTAA target peptides; experiment: encoding assay; P2 F;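 note: fraction of recording tags encoded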
[40] = target: M17-modified S NTAA target peptides; experiment: encoding assay; P2 F;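 note: fraction of recording tags encoded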
[41] = target: M17-modified D NTAA target peptides; experiment: encoding assay; P2 F;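 note: fraction of recording tags encoded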
[42] = target: M17-modified A NTAA target peptides; experiment: encoding assay; P2 F;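 note: fraction of recording tags encoded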
[43] = target: M17-modified T NTAA target peptides; experiment: encoding assay; P2 F;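 note: fraction of recording tags encoded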
[44] = target: M17-modified W NTAA target peptides; experiment: encoding assay; P2 F;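 note: fraction of recording tags encoded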
[45] = target: M17-modified G NTAA target peptides; experiment: encoding assay; P2 F;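 note: fraction of recording tags encoded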
[46] = target: M17-modified Q NTAA target peptides; experiment: encoding assay; P2 F;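 note: fraction of recording tags encoded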
[47] = target: M17-modified I NTAA target peptides; experiment: encoding assay; P2 F;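 note: fraction of recording tags encoded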
[48] = target: M17-modified M NTAA target peptides; experiment: encoding assay; P2 F;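 note: fraction of recording tags encoded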
[49] = target: M17-modified L NTAA target peptides; experiment: encoding assay; P2 F;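 note: fraction of recording tags encoded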
[50] = target: M17-modified Y NTAA target peptides (M17-Y-P2-peptide); experiment: encoding assay; P2 F;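 note: fraction of recording tags encoded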
[51] = target: M17-modified F NTAA target peptides; experiment: encoding assay; P2 F;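 note: fraction of recording tags encoded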
[52] = target: M17-modified P NTAA target peptides; experiment: encoding assay; P2 F;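 note: fraction of recording tags encoded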
[53] = target: M17-modified V NTAA target peptides; experiment: encoding assay; P2 F;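 note: fraction of recording tags encoded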
[54] = target: M17-modified E NTAA target peptides; experiment: encoding assay; P2 F;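 note: fraction of recording tags encoded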
[55] = target: M17-modified H NTAA target peptides; experiment: encoding assay; P2 F;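 note: fraction of recording tags encoded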

B1: engineered M44-A binder (SEQ ID NO: 42) (designed binder, not shown: small tags and cut ends; large carriers)
chain: QVSVQPNFQQDKFLGRWFVAGLASNSSWDREKVAALSGAKMVVAPATDGGLNVTRTMLRKNQCETYTGLLQPAGSLGSYSWRSPHPGSTGSESVVETDYDQYALVYGQGSKGPGEDLRAAALWSRTQTPRAELKEKFTAFSKAQGFTEDTIVFLPQTDKCMTEQ
- encoding yield [1]: 0.01
- encoding yield [2]: 0.02
- encoding yield [3]: 0.01
- encoding yield [4]: 0.01
- encoding yield [5]: 0.02

B2: engineered M17-Y binder (SEQ ID NO: 61) (designed binder, not shown: small tags and cut ends; large carriers)
chain: TVPDRSEIAGKWYVVALASNTEFYLREKDWVKSAMARISFLGEDELKVSSAVPSPNGCYKVERTWKKTSDDGEVYNSRAAKLKVEVLDTDYKSYAVIYATRVKDGRTDHQMILYSRSPEVSPAATAIFRKLAGERNYTDEMVAMLPRQEECTVDEV
- encoding yield [6]: 0.03
- encoding yield [7]: 0.02
- encoding yield [8]: 0.01
- encoding yield [9]: 0.02
- encoding yield [10]: 0.01
- encoding yield [11]: 0.03
- encoding yield [12]: 0.06
- encoding yield [13]: 0.04
- encoding yield [14]: 0.02
- encoding yield [15]: 0.01
- encoding yield [16]: 0.02
- encoding yield [17]: 0.01
- encoding yield [18]: 0.03
- encoding yield [19]: 0.02
- encoding yield [20]: 0.01
- encoding yield [21]: 0.02
- encoding yield [22]: 0.02
- encoding yield [23]: 0.02
- encoding yield [24]: 0.01
- encoding yield [25]: 0.02
- encoding yield [26]: 0.01
- encoding yield [27]: 0.04
- encoding yield [28]: 0.02
- encoding yield [29]: 0.02
- encoding yield [30]: 0.02
- encoding yield [31]: 0.02
- encoding yield [32]: 0.02
- encoding yield [33]: 0.12
- encoding yield [34]: 0.04
- encoding yield [35]: 0.01
- encoding yield [36]: 0.01
- encoding yield [37]: 0.01
- encoding yield [38]: 0.02
- encoding yield [39]: 0.02
- encoding yield [40]: 0.02
- encoding yield [41]: 0.02
- encoding yield [42]: 0.02
- encoding yield [43]: 0.02
- encoding yield [44]: 0.05
- encoding yield [45]: 0.03
- encoding yield [46]: 0.02
- encoding yield [47]: 0.06
- encoding yield [48]: 0.03
- encoding yield [49]: 0.04
- encoding yield [50]: 0.2
- encoding yield [51]: 0.07
- encoding yield [52]: 0.01
- encoding yield [53]: 0.02
- encoding yield [54]: 0.04
- encoding yield [55]: 0.03

B3: upgraded binder after additional maturation round (SEQ ID NO: 62) (designed binder, not shown: small tags and cut ends; large carriers)
chain: B2 chain with E27G, W30R, A36V, L41Q, G105R, E119D
- encoding yield [6]: 0.03
- encoding yield [7]: 0.02
- encoding yield [8]: 0.02
- encoding yield [9]: 0.02
- encoding yield [10]: 0.06
- encoding yield [11]: 0.03
- encoding yield [12]: 0.12
- encoding yield [13]: 0.08
- encoding yield [14]: 0.04
- encoding yield [15]: 0.02
- encoding yield [16]: 0.03
- encoding yield [17]: 0.02
- encoding yield [18]: 0.06
- encoding yield [19]: 0.03
- encoding yield [20]: 0.02
- encoding yield [21]: 0.04
- encoding yield [22]: 0.03
- encoding yield [23]: 0.03
- encoding yield [24]: 0.02
- encoding yield [25]: 0.02
- encoding yield [26]: 0.01
- encoding yield [27]: 0.08
- encoding yield [28]: 0.03
- encoding yield [29]: 0.02
- encoding yield [30]: 0.03
- encoding yield [31]: 0.03
- encoding yield [32]: 0.04
- encoding yield [33]: 0.24
- encoding yield [34]: 0.09
- encoding yield [35]: 0.01
- encoding yield [36]: 0.02
- encoding yield [37]: 0.02
- encoding yield [38]: 0.02
- encoding yield [39]: 0.03
- encoding yield [40]: 0.02
- encoding yield [41]: 0.02
- encoding yield [42]: 0.04
- encoding yield [43]: 0.03
- encoding yield [44]: 0.11
- encoding yield [45]: 0.04
- encoding yield [46]: 0.03
- encoding yield [47]: 0.06
- encoding yield [48]: 0.05
- encoding yield [49]: 0.05
- encoding yield [50]: 0.28
- encoding yield [51]: 0.1
- encoding yield [52]: 0.02
- encoding yield [53]: 0.02
- encoding yield [54]: 0.04
- encoding yield [55]: 0.04

B4: engineered M44-L binder (SEQ ID NO: 31) (designed binder, not shown: small tags and cut ends; large carriers)
chain: QDSTQNLIPAPPLISVPLQPGFWTERFQGRWFLVGFAGNAVQKERQSRLTMQSLILELQEDNSYNITAINVRGQGCRYIISTLVPSSRPGQFTLGNIHSYPQIQSLDVQVADTDYDQFAMVFLQGTSENKQYFEVALAGRTKGLSDELKERFVSFAKSLGLKDNNIVFSVPTDQCIDN
- encoding yield [1]: 0.01
- encoding yield [2]: 0.02
- encoding yield [3]: 0.01
- encoding yield [4]: 0.01
- encoding yield [5]: 0.02
